Ends that are not written are not given here.
B1: scFv JU1 (scFv, V domains shown)
VH: EVQLLESGGGLVQPGGSLRLSCAASGFTFSSYAMSWVRQAPGKGLEWVSRISAQGNQTRYSDSVKGRFTISRDNSKNTLYLQMNSLRAEDTAVYYCAKKSSYFDYWGQGTLVTVSS
VL: DIQMTQSPSSLSASVGDRVTITCRASQSISSYLNWYQQKPGKAPKLLIYKASTLQSGVPSRFSGSGSGTDFTLTISSLQPEDFATYYCQQWRTRPLTFGQGTKVEIK
B2: scFv AU1 (scFv, V domains shown)
VH: EVQLLESGGGLVQPGGSLRLSCAASGFTFSSYAMSWVRQAPGKGLEWVSTILQHGQRTLYADSVKGRFTISRDNSKNTLYLQMNSLRAEDTAVYYCAKNRAVFDYWGQGTLVTVSS
VL: DIQMTQSPSSLSASVGDRVTITCRASQSISSYLNWYQQKPGKAPKLLIYTASTLQSGVPSRFSGSGSGTDFTLTISSLQPEDFATYYCQQYRQRPPTFGQGTKVEIK
notes: also called AU1 scFv
B3: scFv GU1 (scFv, V domains shown)
VH: EVQLLESGGGLVQPGGSLRLSCAASGFTFSSYAMSWVRQAPGKGLEWVSGISQLGGYTGYAGSVKGRFTISRDNSKNTLYLQMNSLRAEDTAVYYCAKNRATFDYWGQGTLVTVSS
VL: DIQMTQSPSSLSASVGDRVTITCRASQSISSYLNWYQQKPGKAPKLLIYAASHLQSGVPSRFSGSGSGTDFTLTISSLQPEDFATYYCQQSQHKPLTFGQGTKVEIK
B4: scFv UU1 (scFv, V domains shown)
VH: EVQLLESGGGLVQPGGSLRLSCAASGFTFSSYAMSWVRQAPGKGLEWVSTISMSGKRTQYADSVKGRFTISRDNSKNTLYLQMNSLRAEDTAVYYCAKRHRYFDYWGQGTLVTVSS
VL: DIQMTQSPSSLSASVGDRVTITCRASQSISSYLNWYQQKPGKAPKLLIYRASKLQSGVPSRFSGSGSGTDFTLTISSLQPEDFATYYCQQPGWRPKTFGQGTKVEIK

Legend:
[1] = target: T1, biotinylated BSA conjugated peptide (influenza A virus, also: biotinylated, BSA conjugated); experiment: BLI
T1 peptide: KSLLTEVETPI

[2] = target: T2, matrix protein 2 [Influenza A virus (A/New York/392/2004(H3N2))] (Influenza A virus (A/New …, UniProt P0DOF5, strain)); experiment: flow cytometry on cells; settings: one partner purified
T2 construct: also called M2; M2 protein

| Binder | Kd [1] [µM] | binding result [2] |
| --- | --- | --- |
| B1 | 3.61 | binds |
| B2 | 0.94 | binds |
| B3 | 0.35 | binds |
| B4 | 8.6 | binds |

— article PMC10367348 (Journal of Biomedical Science, 2023)
